Substrate in data set [1]: COC(=O)c1cccc(O)c1N
As to the kind of experiment: purified protein. Format: biochemical, Solanum lycopersicum. To be noted: 200 or 500 uM p-coumaroyl-CoA, 30 C, aminoacylation (amide synthesis).

Substrate in data set [2]: CC(C)(COP(=O)(O)OP(=O)(O)OC[C@H]1O[C@@H](n2cnc3c(N)ncnc32)[C@H](O)[C@@H]1OP(=O)(O)O)[C@@H](O)C(=O)NCCC(=O)NCCSC(=O)CC(=O)O
Description: purified protein. The settings on record: 200 uM p-coumaroyl-CoA, 30 C, 120 nM enzyme.

This is an account of results in publication PMC7608815.

B1: SlCHS (Solanum lycopersicum) (protein)
chain: MVTVEEYRKAQRAEGPATILAIGTSTPSNCVDQSTYPDYYFRITNSEHKTELKEKFKRMCDKSMIKKRYMHLTEEILKENPNMCAYMAPSLDARQDIVVVEVPKLGKRGTQKAIKEWGQPKSKITHLVFCTTSGVDMPACDYQLAKLLPVRPSVKRLMMYQQGCFAGGTVLRLAKDLAENNKGARVLVVCSEITAVTFRGPSESHLDSLVGQALFGDGAAAIIIGSDPIIGVERPLFELVSAAQTLVPDSEGAIDGHLREVGLTFHLLKDVPGLISKNIEKSLLEAFQPLGISDWNSLFWIAHPGGPAILDQVELKLGLKPEKLRATREVLSNYGNMSSACVLFILDEMRKASTKEGLGTTGEGLEWGVLFGFGPGLTVETVVLHSVAA
In the case of B1, in “purified protein [1]”, the Km is 3060 µM and the kcat turned out to be 0.00603 s⁻¹. In addition, in “purified protein [2]”, the Km amounted to 21.34 µM and the kcat amounted to 0.00157 s⁻¹.

A word on the Km: it is the concentration of substrate that gives half-maximal velocity. By kcat is commonly meant the number of substrate molecules converted per active site and unit of time at saturation.
